Like-named read-outs stand apart in the source and are kept apart here. No end group written: not given here.
Key:
SP34 [1] = test: BLI binding of SP34 to CD3ε1-27 mutant fusion proteins; conditions: FIG. 2B
Protocol: (§1) Measurement of bindings between CD3ε1-27 mutants-SP34 fusion, or M-TCE, and […] was conducted as described above but with AHC sensors to capture M-TCE, and […] was used as the analyte.
In some embodiment, binding of SP34 to the second batch of 42 variants of […] mutant fusion proteins were tested by BLI with a ForteBio Red96 as described above.

SP34 [2] = test: Masking capability of potential masks of SP34 (ELISA, BLI); type: binding; conditions: mask and linker fused to SP34 VH and/or VL
Protocol: (§2) Binding of the 19 M-TCEs to both their antigens CEACAM5 and CD3δε was assessed with BLI using ForteBio Red96 as described above.

MMP9 = molecular target: T1, MMP9 (Homo sapiens, UniProt P14780); test: Removal of masks by MMP9 digestion, SDS-PAGE; type: biochemical; conditions: 100 nM activated MMP9, 37° C., 3 hr
T1 construct: purchased Acrobiosystems
Protocol: MMP9 proenzyme (proMMP9), purchased from Acrobiosystems, was dissolved to 100 μg/mL in MMP9 digestion buffer (50 mM Tris, 10 mM CaCl2), 150 mM NaCl, pH 7.6). 4-aminophenylmercuric acetate (APMA) was added to a final concentration of 1 mM. The proMMP9-APMA mixture was incubated at 37° C. for 24 hr to activate proMMP9.
The selected M-TCEs, after adjusting to MMP9 digestion buffer, was mixed with activated MMP9 to a final concentration of 100 nM. The samples were further incubated at 37° C. for 3 hr to allow M-TCEs to be digested by MMP9.
The M-TCEs with 14 AA, 16 AA and 18 AA linker could be completely or nearly completely digested, as only the faster migrating bands could be seen. […] Too short linker would make the removal of the masks difficult, probably because the employed enzyme, MMP9 in this case, could not fully engage with its digestion site in the M-TCEs.

CD3δε [3] = molecular target: T2, CD3δε (Homo sapiens, UniProt P07766); test: BLI binding of M-TCEs (captured on AHC sensors) to CD3δε; parameters: purchased ACRO (Beijing, China)
Protocol: (§3) Bio-Layer Interferometry (BLI) technique was employed for the measurement of protein-protein interactions in this study. A Octet Red96 system and Streptavidin (SA) or AHC biosensors (ForteBio, Fremont) were utilized.
as §1, §2
Target sequence in this assay (P07766 22-126 limits assumed): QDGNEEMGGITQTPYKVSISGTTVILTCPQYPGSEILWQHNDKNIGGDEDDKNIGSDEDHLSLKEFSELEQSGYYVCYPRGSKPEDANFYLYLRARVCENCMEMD
Target sequence in this assay (P04234 22-105 partner limits assumed): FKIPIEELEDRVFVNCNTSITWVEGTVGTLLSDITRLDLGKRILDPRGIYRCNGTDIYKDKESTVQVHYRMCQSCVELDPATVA

HT29 cells = test: PBMC co-cultivation assay, M-TCE-induced killing of HT29 cells; type: cell-based, human; conditions: for EC50: HT29 + human PBMC, 72 hours, read-out: Efficacy (EC50); for tumor cell killing efficacy: digested vs undigested, in words; for Digested vs. masked: ratio of EC50 non-digested to MMP9-digested
Protocol: Five digested and undigested M-TCEs were tested for their tumor cell killing capability in the presence of human PBMC.
A total of 5×10^3 cells in RPMI1640 medium (supplemented with 10% FBS and 2 mM glutamine) of the target cell line (HT29) were seeded in 96-well plates (Day 0). A dilution series of respective antibodies was performed in assay media and added to target cells. On Day 0, a total of 5×10^4 PBMCs were added to each well, and the final reaction volume was adjusted to 200 μl. Percentage viability of target cell was measured by […]. LDH was measured after 72 hours using the Cell Counting Kit-8 (CK04, Dojindo, Japan) according to the manufacturer's recommendations. The results were analyzed as mean and standard deviation (SD) from triplicate wells and plotted as 4-parameter non-linear regression fittings using GraphPad Prism 9 software (GraphPad Software, San Diego, CA, USA).

CD3δε [4] = molecular target: T2, CD3δε; test: BLI (Octet Red96), SP34 on AHC biosensor, CD3δε as analyte
CD3ε-p1 = molecular target: T3, CD3ε-p1 (human); test: BLI, biotinylated peptide on SA biosensor, SP34 as analyte
T3 construct: also called 5 AA N-terminal CD3ε peptide
T3 peptide: QDGNEGGGGS-biotin
Protocol: (§4) To measure the binding of SP34 to CD3ε peptides, the peptides were immobilized on the SA biosensor through SA-biotin interaction according the manufacturer's instruction. After running PBS with 0.01% Tween-20 buffer to stabilize baselines, the biosensors were dipped into solid black 96-well plates (Greiner Bio-One, Cat. #65520, Monroe, North Carolina, USA) containing SP34 in indicated concentrations. Association and dissociation were measured accordingly, and binding kinetics were calculated using ForteBio's Data Analysis 12.0 software.
(§5) BLI technology was employed to measure the affinity of the six peptides to SP34 with a ForteBio Red96. These peptides were immobilized on the SA Biosensor and their affinities were measured using SP34 as the analyte. The binding sensorgrams indicate that SP34 binds to all six peptides with very similar profiles (FIG. 1C). […] It is further hypothesized that a N-terminal CD3ε peptide […] can bind to SP34 as well.

CD3ε-p2 = molecular target: T4, CD3ε-p2 (human); test: as above
T4 construct: also called 8 AA N-terminal CD3ε peptide
T4 peptide: QDGNEEMGGGGGS-biotin
Protocol: as §4, §5

CD3ε-p3 = molecular target: T5, CD3ε-p3 (human); test: as above
T5 construct: also called 11 AA N-terminal CD3ε peptide
T5 peptide: QDGNEEMGGITGGGGS-biotin
Protocol: as §4, §5

CD3ε-p5 = molecular target: T6, CD3ε-p5 (human, biotinylation at the C-terminus); test: as above
T6 construct: also called 17 AA N-terminal CD3ε peptide
T6 peptide: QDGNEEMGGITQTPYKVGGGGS
Protocol: as §4, §5

CD3ε-p6 = molecular target: T7, CD3ε-p6 (human, biotinylation at the C-terminus); test: as above
T7 construct: also called 20 AA N-terminal CD3ε peptide
T7 peptide: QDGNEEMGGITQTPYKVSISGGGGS
Protocol: as §4, §5

CD3ε-p7 = molecular target: T8, CD3ε-p7 (human, biotinylation at the C-terminus); test: as above
T8 construct: also called 23 AA N-terminal CD3ε peptide
T8 peptide: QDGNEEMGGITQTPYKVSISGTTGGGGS
Protocol: as §4, §5

CD3 on human PBMC [5] = molecular target: T9, CD3 on human PBMC (human, UniProt P07766 23-207); test: cell-based or functional assay
CD3 on human PBMC [6] = molecular target: T9, CD3 on human PBMC; test: cell-based or functional assay; remark: listed apart in the source
CD3δε [7] = molecular target: T2, CD3δε; test: BLI affinity of SP34 (immobilized on AHC biosensor) to CD3δε as analyte; type: binding; parameters: purchased ACRO (Beijing, China)
Protocol: as §3
Target sequence in this assay (P07766 22-126 limits assumed): as the sequence (P07766 22-126 limits assumed) above
Target sequence in this assay (P04234 22-105 partner limits assumed): as the sequence (P04234 22-105 partner limits assumed) above
CD3δε was purchased from ACRO (Beijing, China) and used as the antigen for SP34 affinity measurement.
SP34 was immobilized on the AHC biosensor and its affinity to CD3δε was measured using the latter as the analyte. This approach was selected as it can avoid potential multivalent binding and give accurate affinity between SP34 and CD3δε.

T1 sequence (P14780 107-707 limits assumed): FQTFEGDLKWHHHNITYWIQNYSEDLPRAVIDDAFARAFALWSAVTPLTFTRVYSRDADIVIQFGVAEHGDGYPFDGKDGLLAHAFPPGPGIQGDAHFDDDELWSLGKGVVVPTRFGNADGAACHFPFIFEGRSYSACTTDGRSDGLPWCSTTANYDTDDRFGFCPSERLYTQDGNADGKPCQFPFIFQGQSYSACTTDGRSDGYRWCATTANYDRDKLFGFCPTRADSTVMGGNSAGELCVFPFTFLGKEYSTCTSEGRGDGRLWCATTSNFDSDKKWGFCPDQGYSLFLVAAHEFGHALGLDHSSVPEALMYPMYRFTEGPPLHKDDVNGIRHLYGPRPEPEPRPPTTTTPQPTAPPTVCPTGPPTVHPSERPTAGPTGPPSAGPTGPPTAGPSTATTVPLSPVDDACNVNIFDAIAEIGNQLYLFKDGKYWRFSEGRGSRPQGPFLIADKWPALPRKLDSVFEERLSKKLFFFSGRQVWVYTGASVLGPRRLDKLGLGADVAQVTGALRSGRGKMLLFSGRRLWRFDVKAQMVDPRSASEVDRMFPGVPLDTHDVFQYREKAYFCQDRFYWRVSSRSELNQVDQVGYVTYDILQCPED
T9 sequence (P07766 23-207): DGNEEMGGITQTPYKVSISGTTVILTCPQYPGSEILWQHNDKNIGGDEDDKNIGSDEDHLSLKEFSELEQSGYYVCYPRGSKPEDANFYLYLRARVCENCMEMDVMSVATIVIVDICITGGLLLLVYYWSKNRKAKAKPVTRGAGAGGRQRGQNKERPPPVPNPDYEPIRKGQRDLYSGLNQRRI

Molecule: G3R: G3R mutant of the CD3ε1-27-Fc fusion protein
- binding of SP34 to fusion protein (SP34 [1]): maintained binding

Molecule: L2-G3R: M-TCE; QDRNEEGSPLGLGS-SP34VH, SEQ ID NO 43
- Masking Capability (SP34 [2]): Yes
- digestion by MMP9 (MMP9): could not be digested
- binding to CD3δε (CD3δε [3]; non-digested (masked), compared with non-masked TCE): lack of masking capability

Molecule: L4-D2E: M-TCE; QEGNEEGSGSPLGLGSGS-SP34VH, SEQ ID NO 27
- Masking Capability (SP34 [2]): Yes
- digestion by MMP9 (MMP9): partially digested
- EC50 (HT29 cells; MMP9-digested): 0.011 nM
- EC50 (HT29 cells; Non-digested): 0.65 nM
- tumor cell killing efficacy (HT29 cells): higher efficacy in inducing tumor cell killing than their undigested counterparts
- Digested vs. masked (HT29 cells): 59×

Molecule: L4-G3A: M-TCE; QDANEEGSGSPLGLGSGS-SP34VH, SEQ ID NO 39
- Masking Capability (SP34 [2]): Yes
- digestion by MMP9 (MMP9): partially digested
- EC50 (HT29 cells; MMP9-digested): 0.012 nM
- EC50 (HT29 cells; Non-digested): 1.72 nM
- efficacy lower before mask removal (HT29 cells; before vs after MMP9 digestion): ~140 fold
- tumor cell killing efficacy (HT29 cells): could induce tumor cell killing both before and after MMP9 digestion
- Digested vs. masked (HT29 cells): 144×
- EC50 of MMP9-digested M-TCE relative to unmasked TCE (HT29 cells; vs SP34-CEA): approximately 10 fold
- binding to CD3δε (CD3δε [3]; after MMP9 digestion): largely restored the binding

Molecule: Q1C: Q1C mutant of the CD3ε1-27-Fc fusion protein
- binding of SP34 to fusion protein (SP34 [1]): maintained binding

B1: SP34 chimeric antibody (antibody, V domains shown)
VH: EVKLLESGGGLVQPKGSLKLSCAASGFTFNTYAMNWVRQAPGKGLEWVARIRSKYNNYATYYADSVKDRFTISRDDSQSILYLQMNNLKTEDTAMYYCVRHGNFGNSYVSWFAYWGQGTLVTVSS
VL: QAVVTQESALTTSPGETVTLTCRSSTGAVTTSNYANWVQEKPDHLFTGLIGGTNKRAPGVPARFSGSLIGDKAALTITGAQTEDEAIYFCALWYSNLWVFGGGTKVEIK
notes: VH and VL fused to the constant regions of human IgG1
- Kd (CD3δε [4]): 5.8 nM
- koff (CD3δε [4]): 0.0032 s⁻¹
- kon (CD3δε [4]): 550000 M⁻¹ s⁻¹
- Kd (CD3ε-p1): 0.99 nM
- koff (CD3ε-p1): 0.00016 s⁻¹
- kon (CD3ε-p1): 160000 M⁻¹ s⁻¹
- Kd (CD3ε-p2): 3.6 nM
- koff (CD3ε-p2): 0.00024 s⁻¹
- kon (CD3ε-p2): 65000 M⁻¹ s⁻¹
- Kd (CD3ε-p3): 2 nM
- koff (CD3ε-p3): 0.00011 s⁻¹
- kon (CD3ε-p3): 56000 M⁻¹ s⁻¹
- Kd (CD3ε-p5): 1.8 nM
- koff (CD3ε-p5): 9.8e-05 s⁻¹
- kon (CD3ε-p5): 54000 M⁻¹ s⁻¹
- Kd (CD3ε-p6): 3.5 nM
- koff (CD3ε-p6): 0.00016 s⁻¹
- kon (CD3ε-p6): 46000 M⁻¹ s⁻¹
- Kd (CD3ε-p7): 1.3 nM
- koff (CD3ε-p7): 0.00013 s⁻¹
- kon (CD3ε-p7): 100000 M⁻¹ s⁻¹

B2: MMP9-digested L4-G3A (bispecific antibody, not shown: small tags and cut ends)
heavy: B1 VH
light: B1 VL
chain: EVQLVESGGGFVQAGESLTLSCTSSTLTFTPYRMAWYRQAPGKQRDLVADISSGDGRTTNYADFAKGRFTISRDNIKNTVFLRMTNLKPEDTAVYYCNTFVSFVGIARSWGQGTQVTVSSESKYGPPCPPCPAPEAAGGPSVFLFPPKPKDTLMISRTPEVTCVVVDVSQEDPEVQFNWYVDGVEVHNAKTKPREEQFNSTYRVVSVLTVLHQDWLNGKEYKCKVSNKGLPSSIEKTISKAKGQPREPQVCTLPPSQEEMTKNQVSLSCAVKGFYPSDIAVEWESNGQPENNYKTTPPVLDSDGSFFLVSRLTVDKSRWQEGNVFSCSVMHEALHNRFTQKSLSLSL
- killing EC50 of MMP9-digested M-TCE against that of unmasked TCE SP34-CEA (CD3 on human PBMC [5]): ~10 fold
- EC50 of M-TCE-induced killing of HT29 cells in the presence of human PBMC (CD3 on human PBMC [6]): 0.012 nM

B3: SP34: anti-CD3 antibody; VH and VL (SEQ ID NOs 1, 2) fused to human IgG1 constant regions, chimeric antibody (antibody, V domains shown)
VH: B1 VH
VL: B1 VL
modifications: human IgG1 constant regions; VH of anti-CD3 antibody SP34; VL of anti-CD3 antibody SP34
- ka (CD3δε [7]; SP34 immobilized, CD3δε 9.4-150 nM as analyte): 550000 M⁻¹ s⁻¹
- kd (CD3δε [7]; SP34 immobilized, CD3δε as analyte): 0.0032 s⁻¹
- Kd (CD3δε [7]; monovalent binding of SP34 to CD3δε): 5.8 nM
